Source: US20070022484A1 (published 2007)

Biological target: C-terminal sRL91 (N-terminal SH2 domain SH2n of p85 subunit of bovine phosphatidylinositol 3-kinase fused … (bovine (SH2n part)))
Assay: cell-based or functional assay

C-terminal sRL91 (N-terminal SH2 domain SH2n of p85 subunit of bovine phosphatidylinositol 3-kinase fused … (bovine (SH2n part))), sequence (chain, as listed by the source limits assumed): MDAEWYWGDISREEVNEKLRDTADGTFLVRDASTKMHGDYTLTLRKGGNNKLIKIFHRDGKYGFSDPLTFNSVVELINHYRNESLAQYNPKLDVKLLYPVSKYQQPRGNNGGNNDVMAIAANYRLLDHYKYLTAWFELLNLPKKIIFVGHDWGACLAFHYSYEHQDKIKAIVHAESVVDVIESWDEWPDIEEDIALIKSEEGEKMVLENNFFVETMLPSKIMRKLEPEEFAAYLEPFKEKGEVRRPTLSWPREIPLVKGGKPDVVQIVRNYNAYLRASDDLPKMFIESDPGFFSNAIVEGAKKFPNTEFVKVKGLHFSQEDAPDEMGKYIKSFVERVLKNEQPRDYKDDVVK

B1: N-terminal sRL91 (N-split Renilla luciferase hRLn, split between Ser91 and Tyr92, fused through a linker to Y941 peptide, with Myc epitope) (other, not shown: small tags and cut ends)
chain: MTSKVYDPEQRKRMITGPQWWARCKQMNVLDSFINYYDSEKHAENAVIFLHGNAASSYLWRHVVPHIEPVARCIIPDLIGMGKSGKSGNGSCLSLASNNGNGRNGASLETEEAYMKMDLGPG
modifications: the 941-tyrosine residue of the Y941 peptide is phosphorylated by the insulin receptor upon insulin stimulation
- luminescence activity with 10^-7 M insulin against its absence (split Renilla luciferase complementation, CHO-HIR cells expressing sRL91): 25 fold
